Here are results for six molecules from paper PMC2892007, “The Terminal Immunoglobulin-Like Repeats of LigA and LigB of Leptospira Enhance Their Binding to Gelatin Binding Domain of Fibronectin and Host Cells” (PLoS ONE, 2010).

Settings in all cases: both partners purified
The target of assay [1] is T1, Gelatin-binding domain of human plasma fibronectin (human).
T1 construct: also called GBD; source: bought: Sigma-Aldrich
Nature of the assay: ELISA.

Assay [2] has as its target T1, Gelatin-binding domain of human plasma …. Nature of the assay: SEC-MALS; mixtures of Lig protein and GBD on Superose 6, 20 mM HEPES, 150 mM NaCl, pH 7.5. (In gel filtration, larger molecules generally elute earlier.)
For assay [3] the target is unchanged. Nature of the assay: ITC; GBD in the cell (1 ml), Lig protein in the syringe (250 µl), 25 injections of 10 µl, 25°C, Tris buffer with 100 µM CaCl2; independent binding model. Background: Isothermal titration calorimetry measures the heat released or taken up as one component is titrated into another.
Assay [4] shares this target. Nature of the assay: SPR. Background: SPR reads the build-up and loss of mass on a sensor chip optically.
For assay [5] the target is unchanged. Nature of the assay: ITC; GBD in the cell (1 ml), Lig protein in the syringe (250 µl), 25 injections of 10 µl, 25°C, Tris buffer with 100 µM CaCl2; independent binding model. This is another data set of the same source.

B1: LigBCen7'-12 (domain or fragment)
chain: AEITNTSGSKGITNTLTPGSSEISAALGSIKSSKVILKVTPAQLISIAVTPINPSVAKGLIRQFKATGTYTDHSVQDVTALATWSSSNPRKAMVNNVTGSVTTVATGNTNIKATIDSISGSSVLNVTPALLTSIEITPTINSITHGLTKQFKATGIFSDKSTQNLTQLVTWISSDPSKIEIENTSGKKGIATASKLGSSNIKAVYKFIQSSPIPITVTDLKLKSITISPSSSSIAKGLTQQFKAIGTFIDGSEQEITNLVTWYSSKSDVAPINNAANEKGLATALSIGSSDIYAIYNSISSNKINFNVSAATLDSIKINPVNNNIAKGLTQQYTALGVYSDSTIQDISDSVTWSSSNSSSISISNSTETKGKATALQIGNSKITATYNSISENIDITVSAATLSSISISPINTNINTTVSKQFFAVGTYSDGTKADLTSSVTWSSSNQSQAKVSNASETKGLVTGIASGNPTIIATYGSVSGNTILTVNKTDTI
modifications: biotin (in the ELISA)
On to B1, for which the Kd (usually the free concentration of one partner at which half of the binding sites on the other are occupied at equilibrium, for simple one-to-one binding) in assay [1] is 49 ± 7 nM; in assay [3], 49 ± 2 nM. Moreover, the stoichiometry N (usually a count of units in the complex or per binding partner) in assay [2] was 3.03 GBD: Lig; in assay [3] it was 0.33 ± 0.02 Lig: GBD. In addition, the dH in assay [3] was -95.7 ± 3.85 kcal/mol.

B2: LigAVar7'-8 (domain or fragment)
chain: LTVSNTNAKRGLGSTLKQGTVKVTASMGGIEDSVDFTVTQATLTSIEVSPTRASIAKGMTQKFTATGIFTDHSKKNITEQVTWKSSSKALSMLNAPGEEGTGKAIAVGKHYYYCNLRKTFRENRYYRYSRNSYFN
modifications: biotin (in the ELISA)
As for B2, in assay [4], the koff (usually the first-order rate constant of dissociation) was found to be 0.00501 s⁻¹ and the kon – broadly, the second-order rate constant of association – turned out to be 750 M⁻¹ s⁻¹. Besides, in assay [2], the “stoichiometry N” value is 0.95 GBD: Lig. In assay [3], the Kd was 6750 ± 110 nM, the dH is -28.6 ± 5.14 kcal/mol and the “stoichiometry N” value was 1.01 ± 0.04 Lig: GBD.

B3: LigAVar13 (domain or fragment)
chain: ITISLSSISKTKGSTHQFKATGKFENGAEIDLTELVTWSSSNPTVVSISNVDDERGLATALSVGSSKISVDYNSISSSIDFEVTPEILASIKTEP
modifications: biotin (in the ELISA)
As to B3, in assay [4], the koff came to 0.0053 s⁻¹ and the kon stood at 510 M⁻¹ s⁻¹.

B4: LigAVar10 (domain or fragment)
chain: LSVTAAELIEIVLDPTSSHKAKGLTENFKATGVFTDNSTKDITDQVTWKSSKTAYAKISNATGSKRVVNAISKGTSHISATLGSISSANATFQVTPAKVV
modifications: biotin (in the ELISA)
In assay [4], B4 came in with a koff of 0.00506 s⁻¹ and a kon of 1190 M⁻¹ s⁻¹.

B5: LigAVar11 (domain or fragment)
chain: FQVTPAKVVSIEVIPNNISFAKGNSYQFKATGIYTDHSEADITEQVTWSSSNPKIASVENTFGSAGLVNTTNIGSTNITAKLSDTVSGASVLNVTPALLRY
modifications: biotin (in the ELISA)
For B5, in assay [4], the koff is 0.00599 s⁻¹ and the kon worked out at 1190 M⁻¹ s⁻¹.

B6: Histidine-tagged LigBCen2R (domain or fragment)
chain: TATYNSISENIDITVSAATLSSISISPINTNINATVSKQFFAVGTYSDGTKADLTSSVTWSSSNKSQAKVSNASKTKGLVTGIASGNSIITATYGSVSGNTILTVNKTDTI
For B6, in assay [4], the koff amounted to 0.00923 s⁻¹ and the kon is 4830 M⁻¹ s⁻¹. Further, in assay [5], binding was characterised by a dissociation constant (Kd) of 1880 ± 90 nM, the dH was -29.2 ± 3.58 kcal/mol and the “stoichiometry N” value stood at 0.995 ± 0.01.
